Assay results: patent US20110300138A1 (published 2011)

Assays:
[1] = target: TSHR (thyroid stimulating hormone receptor), full length human (human) (UniProt P16473); experiment: negative control; competitor ^125I-K1-70 IgG, TSHR coated tubes; 0.1 µg/mL in HBD
[2] = target: TSH receptor (TSHR), full length human, coated on tubes (human) (UniProt P16473); experiment: inhibition of 125I-K1-18 IgG binding to TSHR coated tubes; competitor 125I-K1-18 IgG; negative control sample at 100 µg/mL in HBD serum
[3] = target: human TSH receptor (full length) coated on ELISA plate wells (human) (UniProt P16473); experiment: TSH-biotin binding inhibition ELISA, TSHR coated wells; 100 µg/mL in assay buffer + 100 µg/mL 5B3 IgG; negative control MAb
[4] = target: human TSH receptor (full length) coated on ELISA plate wells (human) (UniProt P16473); experiment: TSH-biotin binding inhibition ELISA, TSHR coated wells; 10 µg/mL in assay buffer + 100 µg/mL 5B3 IgG; negative control MAb
[5] = target: TSH receptor (TSHR), full length human, coated on tubes (human) (UniProt P16473); experiment: inhibition of 125I-TSH binding to TSHR coated tubes; 100 µg/mL, diluted in HBD serum pool
[6] = target: TSHR with Trp258 mutated to Ala, expressed in CHO cells (human) (UniProt P16473); experiment: cell-based or functional assay
[7] = target: wild type TSHR (human TSH receptor) expressed in CHO cells (human) (UniProt P16473); experiment: cell-based or functional assay
[8] = target: thyroid stimulating hormone receptor (TSHR), full length human TSHR (human) (UniProt P16473); experiment: TSH-biotin competition ELISA, TSHR coated wells; negative control, 0.1 µg/mL in assay buffer
[9] = target: human TSH receptor (full length) coated on ELISA plate wells (human) (UniProt P16473); experiment: TSH-biotin binding inhibition ELISA, TSHR coated wells; 100 µg/mL in HBD serum pool; negative control MAb
[10] = target: TSH receptor (TSHR) coated on tubes (human) (UniProt P16473); experiment: inhibition of 125I-K1-70 IgG binding to TSHR coated tubes; negative control 0.1 µg/mL in assay buffer
[11] = target: TSHR (thyroid stimulating hormone receptor), full length human (human) (UniProt P16473); experiment: competitor ^125I-K1-70 IgG, TSHR coated tubes; 10 µg/mL in HBD
[12] = target: TSH receptor (full length human TSHR) (human) (UniProt P16473); experiment: competition ELISA: inhibition of M22 Fab-peroxidase (competitor) binding to TSHR coated wells; test sample at 10 µg/mL diluted in HBD serum pool
[13] = target: TSH receptor (TSHR), full length human, coated on tubes (human) (UniProt P16473); experiment: inhibition of 125I-K1-18 IgG binding to TSHR coated tubes; competitor 125I-K1-18 IgG; sample at 0.01 µg/mL in assay buffer
[14] = target: thyroid stimulating hormone receptor (TSHR), full length human TSHR (human) (UniProt P16473); experiment: TSH-biotin competition ELISA, TSHR coated wells; 1 µg/mL in assay buffer
[15] = target: TSHR (thyroid stimulating hormone receptor), full length human (human) (UniProt P16473); experiment: competitor ^125I-K1-70 IgG, TSHR coated tubes; 100 µg/mL in assay buffer
[16] = target: TSH receptor (TSHR) coated on tubes (human) (UniProt P16473); experiment: inhibition of 125I-K1-70 IgG binding to TSHR coated tubes; sample 0.003 µg/mL in HBD serum pool; duplicate determination
[17] = target: TSH receptor (full length human TSHR) coated on tubes (human) (UniProt P16473); experiment: 125I-TSH binding inhibition read against NIBSC 90/672; mean over 10, 30 and 100 ng/mL, in assay buffer
[18] = target: TSH receptor (full length human TSHR) coated on tubes (human) (UniProt P16473); experiment: 125I-TSH binding inhibition read against NIBSC 90/672; 30 ng/mL, in serum
[19] = target: TSHR with Phe130 mutated to Ala, expressed in CHO cells (human) (UniProt P16473); experiment: cell-based or functional assay
[20] = target: wild type TSHR expressed in CHO cells (human) (UniProt P16473); experiment: cell-based or functional assay
[21] = target: TSH receptor (TSHR) coated on tubes (human) (UniProt P16473); experiment: inhibition of 125I-K1-70 IgG binding to TSHR coated tubes; sample 100 µg/mL in assay buffer
[22] = target: thyroid stimulating hormone receptor (full length human TSHR) (human) (UniProt P16473); experiment: ELISA: inhibition of M22 Fab-peroxidase (competitor) binding to TSHR coated wells; 1 µg/mL, diluted in assay buffer
[23] = target: TSH receptor (TSHR) coated on tubes (human) (UniProt P16473); experiment: inhibition of 125I-K1-70 IgG binding to TSHR coated tubes; sample 10 µg/mL in HBD serum pool
[24] = target: TSH receptor (TSHR), full length human, coated on tubes (human) (UniProt P16473); experiment: inhibition of 125I-TSH binding to TSHR coated tubes; 0.01 µg/mL, diluted in HBD serum pool
[25] = target: human TSH receptor (full length) coated on ELISA plate wells (human) (UniProt P16473); experiment: TSH-biotin binding inhibition ELISA, TSHR coated wells; 100 µg/mL in assay buffer + 100 µg/mL 5B3 IgG
[26] = target: thyroid stimulating hormone receptor (TSHR), full length, coated on tubes (human) (UniProt P16473); experiment: inhibition of 125I-TSH binding, TSHR coated tubes; antibody 1 µg/mL in assay buffer

5B3 IgG (antibody)
Inhibition of binding (%) [1]: -3.6% | Inhibition of binding (%) [2]: 29.4% | % inhibition of TSH-biotin binding [3]: 1.1% | % inhibition of TSH-biotin binding [4]: -4.8% | Inhibition of binding (%) [5]: -3.9% | % inhibition of TSH stimulation; 5B3 10 µg/mL [6]: 15% | % inhibition of TSH stimulation; 5B3 100 µg/mL [6]: 4% | Cyclic AMP produced; 5B3 10 µg/mL + TSH 3 ng/mL [6]: 50.7 pmol/mL | Cyclic AMP produced; 5B3 100 µg/mL + TSH 3 ng/mL [6]: 57.6 pmol/mL | Mutated/wild type (%) of cyclic AMP produced; 5B3 10 µg/mL + TSH 3 ng/mL [6]: 75% | Mutated/wild type (%) of cyclic AMP produced; 5B3 100 µg/mL + TSH 3 ng/mL [6]: 79% | Cyclic AMP produced; 5B3 10 µg/mL + TSH 3 ng/mL [7]: 67.7 pmol/mL | Cyclic AMP produced; 5B3 100 µg/mL + TSH 3 ng/mL [7]: 72.8 pmol/mL | Inhibition of binding (%) [8]: -7.8% | % inhibition of TSH-biotin binding [9]: 10.9% | Inhibition of binding (%) [10]: 1%

9D33 IgG (antibody)
Inhibition of binding (%) [11]: 48% | Inhibition of binding (%) [12]: 66.7% | Inhibition of binding (%) [13]: 20.9% | Inhibition of binding (%) [14]: 81.8% | Inhibition of binding (%) [15]: 61.4%

M22 IgG (antibody)
Inhibition of binding (%) [16]: 6.2% | mean units/mg [17]: 266 units/mg | units/L [18]: 4.3 units/L

TSH (ligand)
% inhibition of TSH stimulation; TSH (2) [19]: 0% | Cyclic AMP produced; TSH 3 ng/mL [19]: 121 pmol/mL | Cyclic AMP produced; TSH (2) [19]: 95.4 pmol/mL | Mutated/wild type (%) of cyclic AMP produced; TSH 3 ng/mL [19]: 152% | Mutated/wild type (%) of cyclic AMP produced; TSH (2) [19]: 107% | % inhibition of TSH stimulation; TSH (2) [20]: 0% | Cyclic AMP produced; TSH 3 ng/mL [20]: 79.4 pmol/mL | Cyclic AMP produced; TSH (2) [20]: 89.1 pmol/mL

B1: 5C9 IgG (antibody, from another filing, V domains shown)
VH: EVQLVESGGGLIQPGGSLRLSCAASGFTVSSNYMSWVRQAPGKGLEWVSVTYSGGSTSYADSVKGRFTISRDNSKNTLYLQMNSLRAEDTAVYYCARGGRYCSSISCYARSGCDYWGQGTLVTVSS
VL: AIQMTQSPSSLSASVGDRVTITCRASQSISNYLNWYQQKPGKAPKLLIYAASSLQSGVPSRFSGSGSGTDFTLTISSLQPEDFATYYCQQSYSSPSTTFGQGTKLEIK
Inhibition of binding (%) [21]: 93.3% | Inhibition of binding (%) [22]: 12.1% | Inhibition of binding (%) [23]: 22.7% | Inhibition of binding (%) [24]: -5.5% | % inhibition of TSH-biotin binding [25]: 92.3% | Inhibition of binding (%) [26]: 23.5%
